Experimental data as given in the DeepSol protein solubility set.

experiment: soluble on expression in E. coli; label from the status in PepcDB or PDB records

Sequence	soluble on expression in E. coli
MINSINIQIRETNTDDFDSIMTVEKQAFGYDKEAQLVADLLADKTAEPMVSLLAFYKGEAVGHILFTRAYFDGQGALQMMHILAPLAVKPEYQRQGIGGMLIRAGIERLQEKGSCLVFVLGHKEYYPEYGFIPDAARLGYPAPYPILEQFSDYWMVQAISPKGFDVDKGKIRCSDELNKPEHWRDDESDR	not soluble
MSLGQKGHKDSLYPCGGTPESSLHEALDQCMTALDLFLTNQFSEALSYLKPRTKESMYHSLTYATILEMQAMMTFDPQDILLAGNMMKEAQMLCQRHRRKSSVTDSFSSLVNRPTLGQFTEEEIHAEVCYAECLLQRAALTFLQDENMVSFIKGGIKVRNSYQTYKELDSLVQSEGHHHHHH	not soluble
MGSDKIHHHHHHMINLEKYRIDLNEKKSTKYIQIFNHIKELIINKELVEHEKLPPIRKLSNFLQVNNTTIVKVYELLENEGYVYKIIGSGTFVSSLNSYKSGIDNRKNKIIVQREDLIHFDNGNPSNDMFPIDSFKNAVNMALSKDGSSIFEYDEGLGSEELREKMVEYLSDGNIKTTKENIQIISGAQQGIDIVCKGLISYSDVVFMEEPSYNGAIEVFKSRGAKIISIPMLDDGIDIGILKLKLEKIKPRLIYIMPNFQNPTGISYSTYKKKKLIELAEEHDFYIIEDDFISDFVFESKDNRTIRSYDDKNRVVYIKSFSKILMPGLRIGIVEMPNELLKKVLWAKYSSDISTPGLIQKSMYYYMNNFDWKNYLSHIEKIYTDKYKLAKNLINDKLSGKLKVRKSCGGINFFLELPRGYTSQAFTNFMLNKGVSMLPGTYFFDNLVDDRFFRINIARPSMEELEKGISIISDNIDEFFCEYKNKLDIKSNKLFY	not soluble
MGSDKIHHHHHHMGEAIVITSGKGGVGKTTTSANLGTALAILGKRVCLVDTDIGLRNLDVVMGLENRIIYDLVDVVEGRCKMHQALVKDKRFDDLLYLMPAAQTSDKTAVAPEQIKNMVQELKQEFDYVIIDCPAGIEQGYKNAVSGADKAIVVTTPEISAVRDADRIIGLLEQEENIEPPRLVVNRIRNHLMKNGDTMDIDEIVQHLSIDLLGIVADDDEVIKASNHGEPIAMDPKNRASIAYRNIARRILGESVPLQVLEEQNKGMMAKIKSFFGVRS	not soluble
MARPRKPLLSTDRIVETARALVDAEGLAAVSTRRLAAELGVSGPSLYNHFRTKDEILEAVADSVSAQVDLSMFEDGREWRTALHDWAVSYRTALRDHPNIVPVLAHGPGRRPAALHLADAVYGAMVRAGWPAAQATSIGALMRYFVMGSALGSFAGGFVDDAGAYDPADYPHLQQAHLLAEQQEKIDERAFETGLTALLDGLAQQYAQVAQGV	not soluble
MTHNHHHQAVDNLLNVFSRASHDLTVVHSKLDKEFQQMYPANANPMKLIQRIKKLQEDVTLLKHQCLDLLSAKQDLIDKAQTTLVGNCNLIQKMNASLGESTNGDTDDALADFNQIIDEWTMQVRSRTVGETEDADKEDINKMLFSAICHTN	soluble
MSRRVATITLNPAYDLVGFCPEIERGEVNLVKTTGLHAAGKGINVAKVLKDLGIDVTVGGFLGKDNQDGFQQLFSELGIANRFQVVQGRTRINVKLTEKDGEVTDFNFSGFDVTPADWERFVNDSLSWLGQFDMVCVSGSLPAGVSPEAFTDWMTRLRSQCPCIIFDSSREALVAGLKAAPWLVKPNRRELEIWAGRKLPEMKDVIDAAHALREQGIAHVVISLGAEGALWVNASGEWIAKPPAVDVVSTVGAGDSMVGGLIYGLLMRESSEHTLRLATAVAALAVSQSNVGITDRPQLAAMMARVDLQPFN	not soluble
MGSDKIHHHHHHMTKRILEVNVDDNGYSGVYSLIKRVIENKPADYQIDLACLEPFESQQNIDYLNKLGTQVYYIGYPGNKIKKQLKYYEKLQKVVKDGNYDYVHIHGDVANKLYVTALAARKADSGVKIILQSHASDVDGSHRQLKRFIHKSLRGKLVKLADCYVSVSDLASNWMFPSIPKSQVIKIMNGVDLAAFRYDPIIRKRIRKELGLSRKHVLGHIGRFAYQKNHQYLIQVFAKVYAQDPQARLLLVGKGDLQDECKHQVHDLGLDKQVIFYGLSSNTSELFQAMDVFLLPSHFEGLPIVGVEAQAAGLPVIFSDQITSEAKMTNNVSFLPIDETSLSAWQSQVIKDLELGHRDDYDLLSRQKLDITDTVAAFMKLYNS	not soluble
MSLGEKSRETSSPWSSTILLVKITSADGLVGYGEAPTTLMTLPVLESMKEVARVFNGKDFFNVERNVFDFYRNSFYLPVSMEATSALSAFEIASWDLIGKQLGTPVYKLLGGEVNQKMRAYANGWYNDCVSPDDFLKKAKEVVKMGFTAMKFDPFGDNYDSITNDGLENARNIVGTLRSELGDKVDLLIEYHGRFSKIAAIKAGMALEEYHPFFYEEPLHPDLDHDLLDLKNYYRVPIALGERVLNKKIFARFISQKLVDIIQPDLTNSGGILEGKKIAAIADGFGIPVAPHNAFGPIQTAATLNLDTTITNFIIQESFEMFWPDWKKKLVSSGYKLENGYFTLTNEPGVCKVNEDIVEKYQVSGMEPFDDKEPPWVVSGTFKPYRQKEGHHHHHH	not soluble
MGSSHHHHHHSSGLVPRGSHMKVYYECAPCFLRQAREAIDLATDDEELKLRVMENILELLSERFRRGQVSNELGTRMHRLIKDMTGSEDPYLDEKRRCNEIALRFLPTVRDYLECHSDLESHVKVAITGNIIDFGALGLDFDHDRGIQESLRAPLTINHVPLLEDRLREASEVLYLLDNTGEILFDRPLIEKLAGYDVSVKVAVKGEPILNDACMEDALEAGLDEVAEIVTTGTDSVGIVYSDLSDEFRDMLDGTELVIAKGMGNYEGLTEISDGSRDIFCLLNAKCSAIARDLGVARGDNVAVKI	soluble
MDTALYLLPVTLGDTPIESVLPSYNKEIIQGIKHFIVEDVRSARRFLKKVDREIDIDSLTFYPLNKHTSPEDISGYLKPLAGGLSMGVISEAGCPAVADPGADVVAIAQRKNLKVVPLVGPSSIILSVMGSGFSGQSFAFHGYLPIEPGERAKKIKALEQRVYAEHQTQLFIETPYRNNKMVEDILHNCRPQTRLCIAANITCEGEYIRTKTIKEWQGKVPDLTKIPCIFLLYQLEHHHHHH	not soluble
MHHHHHHSSGRENLYFQGNTTKHIILVRHGQYERRYKDDENSKRLTKEGCKQADITGKKLKDILNNKKVSVIYHSDMIRAKETANIISKYFPDANLINDPNLNEGTPYLPDPLPRHSKFDAQKIKEDNKRINKAYETYFYKPSGDEDEYQLVICHGNVIRYFLCRALQIPLFAWLRFSSYNCGITWLVLDDEGSVVLREFGSVSHLPFESVTYF	soluble
MSRTLTPLLDRVCEPQDLRAFPESDLARLADELRAETIDVVSVTGGHLGAGLGVIELTVALHYVFNTPEDRIIWDVGHQAYPHKILTGRREKIRTLRQEGGLSGFTKRSESVYDPFGAGHSSTSISAGLGMAVASALKAEKRRNIVAVIGDGAMSAGMAYEAMNNAGALNARLIVVLNDNDMSIAPPTGAMSAHLARLVSRPAYRSLRERVKVLGEKLPKFFLDKARRSEEFARGFLVGGTLFEELGFYYVGPIDGHNLKHLLPVLKNVREYPTGPVLIHVVTHKGKGYAPAEASLDKYHGVNRFDIITGKQVKASSNVLPYTKVFSKALREEASYDDKIVAITAAMPTGTGLDFFAEKFPERMFDVGIAEQHAVTFAAGMACEGYKPFVAIYSTFLQRAYDQIIHDVSIQKLPVRFAIDRAGFVGADGATHAGSFDIVFLTTLPEFVVMAPSDEVELMHMVRTAAAYDQGPISFRYPRGEGIGMDLPQRGEILEIGKGRILHEGNRIALVCFGTRISEVLVAADELSAEGLSTTVADARFAKPLDKDLMRRLAREHEVLVTIEEGAIGGFGAHLLQFLAQEGLLEHGLKVRTLKLPDEYLNHGSQEKVLSRIGLDAVGIVNTVFSALGRKIRTVQRVRV	not soluble
MGSDKIHHHHHHVDPVVLLTSVSALTQTQKPCRGRRNARDRIPTCSQETLEGKALALRVAVVGGGPAGSCAAETLVKAGIETYLIERKLDNAKPCGGAIPLCMVSEFDLPAEIIDRRVRNMKMISPSNREVNINLDNADEYIGMTRREVLDGFLRDRAAKLGTKLINGTLFRLELPKGDRDPYVLHYADHSNGSLEGIPSTLEVDVVIGADGANSRIAKAIDAGDYNYAIAFQERIRLPEDKMHYYENLAEMYVGGDVSPDFYAWVFPKYDHVAVGTGTMHVNQRLIKKLQAGIRARAANRLEGGKIIKVEAHPIPEHPRPRRVVGRAALVGDAAGYVTKSSGEGIYFAAKSGRMCAETIVETSNNGARIPTEADLKQYLRRWDKKYGTTYKVLDLLQTVFYRSDATREAFVEMCDDKDVQRLTFDSYLYKTVVPANPLVQLKITAKTLGSLLRGNALAPAEYKPIDAA	not soluble
MSLKNLILAIESSCDDSSIAIIDKNTLECKFHKKISQELDHSIYGGVVPELAARLHSEALPKMLKQCKEHFKNLCAIAVTNEPGLSVSLLSGISMAKTLASALNLPLIPINHLKGHIYSLFLEEKISLDMGILLVSGGHTMVLYLKDDASLELLASTNDDSFGESFDKVAKMMNLGYPGGVIIENLAKNAKLKNISFNTPLKHSKELAFSFSGLKNAVRLEILKHENLNEDTKAEIAYAFENTACDHIMDKLEKIFNLYKFKNFGVVGGASANLNLRSRLQNLCQKYNANLKLAPLKFCSDNALMIARAAVDAYEKKEFVSVEEDILSPKNKNFSRIEGHHHHHH	soluble
MSLEVGFAPAEFTVTDKDGRKVFLSDYKGKYVLIYHWGLCPGTFWVNPKITDLYQKYHEKGLEVLGFTRDDLLKSLQGSSEEFKKDERVQGLLSHPWTTVYTEDEGNGFIVKDLYFSGVPILMLISPDGITLARGYTKAYEEVKNLLDRNLGNKEGHHHHHH	soluble
MAHHHHHHMSLNAADAADERSRKEMDRFQVERMAGQGTFGTVQLGKEKSTGMSVAIKKVIQDPRFRNRELQIMQDLAVLHHPNIVQLQSYFYTLGERDRRDIYLNVVMEYVPDTLHRCCRNYYRRQVAPPPILIKVFLFQLIRSIGCLHLPSVNVCHRDIKPHNVLVNEADGTLKLCDFGSAKKLSPSEPNVAYICSRYYRAPELIFGNQHYTTSVDIWSVGCIFAEMMLGEPIFRGDNSAGQLHEIVRVLGCPSREVLRKLNPSHTDVDLYNSKGIPWSSVFCDHSLKDAKEAYDLLSALLQYLPEDRMKPYEALCHPYFDELHDSATKLPNNKDLPEDLFRFLPSEIEVMSEAQKAKLVRK	not soluble
MGSDKIHHHHHHMHFVMIFLDGFGLGGDRDNPIMAAHTPYIDELLGGHYLWGQERRIESEQLILIPLDASLDVTGIPQSATGQTTLWTGVNGAKALGFHLNAYPNEKLAEIIKEKSIFKQLADQGKKVTFANTFTSHYDEMIASGKRRHTASTLSALAGGVPLRRIEDLLQGKGVYQDMTNEILRELEQEADIPLITSYEAGKNLGRLALDYDFTLYEFFQTDVRGHKQDWEKAVALIEQIDGFIGGFMSVVRHEDVTWLLTSDHGNIEDFRVKGHTQNPVPALGWSSKPLEWPQWERLEDVTPGIVRMILGTREL	not soluble
MSFLGFTLVGKKIRWTEKSLANFKHRVRQLTGRSWGVSMEYRLEKLGQYLRGWFGYYGISQYYRPIPELDEWIRRRVRMCYWKQWRWARTKIRHLLDLGIPLKAAIQHGVSSLSYWRMARTPLEHHHHHH	soluble
